In article PMC11032491, “A conserved strategy to attack collagen: The activator domain in bacterial collagenases unwinds triple-helical collagen” (Proceedings of the National Academy of Sciences of the …, 2024):

Tests used:
[1] = molecular target: type I gelatin (heat-denatured acid-soluble type I atelocollagen from bovine hides) (bovine) (UniProt P02453); assay: ELISA; indirect ELISA; gelatin coated on the plate (5 µg/ml); His-tagged collagenase variant in PBST with 1% BSA, serially diluted 1:3, 140 min at 37 °C; detected with anti-His-HRP; Hill fit; apparent Kd
Chain of type I gelatin (heat-denatured acid-soluble type I atelocollagen from bovine hides) (bovine) (P02453 23-1217, chain 1 of 2): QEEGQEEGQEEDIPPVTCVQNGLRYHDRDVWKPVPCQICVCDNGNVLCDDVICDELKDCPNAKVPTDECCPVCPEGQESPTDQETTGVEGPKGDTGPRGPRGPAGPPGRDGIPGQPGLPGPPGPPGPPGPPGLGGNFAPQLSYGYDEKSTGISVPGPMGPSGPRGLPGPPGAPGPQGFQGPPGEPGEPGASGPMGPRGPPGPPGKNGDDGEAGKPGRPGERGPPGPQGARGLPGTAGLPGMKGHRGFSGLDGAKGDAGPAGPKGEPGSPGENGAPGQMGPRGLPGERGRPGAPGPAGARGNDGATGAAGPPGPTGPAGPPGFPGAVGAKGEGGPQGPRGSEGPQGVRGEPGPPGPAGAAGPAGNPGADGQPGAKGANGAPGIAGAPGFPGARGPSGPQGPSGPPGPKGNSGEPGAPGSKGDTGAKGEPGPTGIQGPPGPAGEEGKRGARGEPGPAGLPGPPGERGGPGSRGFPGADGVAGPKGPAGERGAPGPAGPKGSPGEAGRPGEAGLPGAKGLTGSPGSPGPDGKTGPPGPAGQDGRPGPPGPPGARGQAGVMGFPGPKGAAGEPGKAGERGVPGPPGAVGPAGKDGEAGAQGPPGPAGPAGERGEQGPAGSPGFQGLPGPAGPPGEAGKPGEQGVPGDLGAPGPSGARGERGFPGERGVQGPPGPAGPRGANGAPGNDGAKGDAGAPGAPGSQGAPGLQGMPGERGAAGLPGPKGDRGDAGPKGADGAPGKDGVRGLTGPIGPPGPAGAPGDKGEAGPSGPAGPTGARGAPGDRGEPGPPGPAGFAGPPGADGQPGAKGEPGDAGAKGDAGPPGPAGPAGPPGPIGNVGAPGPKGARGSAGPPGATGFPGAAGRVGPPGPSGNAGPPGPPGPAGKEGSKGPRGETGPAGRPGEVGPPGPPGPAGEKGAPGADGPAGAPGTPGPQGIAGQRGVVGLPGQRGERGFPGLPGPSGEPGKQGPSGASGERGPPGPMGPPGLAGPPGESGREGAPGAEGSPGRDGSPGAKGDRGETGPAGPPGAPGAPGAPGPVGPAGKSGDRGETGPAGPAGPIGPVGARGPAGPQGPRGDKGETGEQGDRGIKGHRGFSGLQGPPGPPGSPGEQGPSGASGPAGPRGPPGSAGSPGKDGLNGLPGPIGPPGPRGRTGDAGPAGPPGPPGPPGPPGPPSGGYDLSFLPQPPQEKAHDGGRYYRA
Chain of type I gelatin (heat-denatured acid-soluble type I atelocollagen from bovine hides) (bovine) (P02465 80-1117, chain 2 of 2, further chain): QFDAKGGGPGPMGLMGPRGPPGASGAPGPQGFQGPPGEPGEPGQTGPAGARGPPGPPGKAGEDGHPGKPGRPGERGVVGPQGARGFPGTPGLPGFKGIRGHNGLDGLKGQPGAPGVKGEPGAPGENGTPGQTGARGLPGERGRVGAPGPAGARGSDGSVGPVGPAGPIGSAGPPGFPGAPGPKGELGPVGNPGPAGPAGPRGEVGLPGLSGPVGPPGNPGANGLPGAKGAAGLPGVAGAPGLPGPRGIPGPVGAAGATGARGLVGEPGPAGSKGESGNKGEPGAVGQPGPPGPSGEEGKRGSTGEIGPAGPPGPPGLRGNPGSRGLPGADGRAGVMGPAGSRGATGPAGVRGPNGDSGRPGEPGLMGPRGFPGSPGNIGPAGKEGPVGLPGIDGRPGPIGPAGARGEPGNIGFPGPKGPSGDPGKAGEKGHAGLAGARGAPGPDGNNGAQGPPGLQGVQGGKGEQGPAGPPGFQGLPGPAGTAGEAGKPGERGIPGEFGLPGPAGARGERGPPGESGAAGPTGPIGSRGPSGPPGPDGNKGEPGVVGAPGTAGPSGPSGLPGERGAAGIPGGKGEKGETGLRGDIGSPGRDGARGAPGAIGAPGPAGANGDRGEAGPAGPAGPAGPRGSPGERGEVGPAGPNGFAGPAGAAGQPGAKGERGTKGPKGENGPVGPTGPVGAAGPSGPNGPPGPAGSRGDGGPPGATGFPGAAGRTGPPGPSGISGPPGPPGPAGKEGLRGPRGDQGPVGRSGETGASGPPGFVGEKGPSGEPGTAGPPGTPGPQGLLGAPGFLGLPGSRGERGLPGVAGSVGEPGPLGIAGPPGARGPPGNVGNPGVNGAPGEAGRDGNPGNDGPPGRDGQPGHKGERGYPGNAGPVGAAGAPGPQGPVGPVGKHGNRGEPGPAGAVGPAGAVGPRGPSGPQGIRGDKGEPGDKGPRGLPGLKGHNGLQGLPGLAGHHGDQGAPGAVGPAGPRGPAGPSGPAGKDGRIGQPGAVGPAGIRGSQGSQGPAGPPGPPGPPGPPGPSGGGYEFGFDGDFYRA

[2] = molecular target: soluble type I collagen (acid-soluble type I atelocollagen from bovine hides) (bovine) (UniProt P02453); assay: ELISA; indirect ELISA; soluble type I collagen coated on the plate (5 µg/ml); His-tagged collagenase variant in PBST with 1% BSA, serially diluted 1:3, 140 min at room temperature (25 °C); detected with anti-His-HRP; Hill fit; apparent Kd
Chain of soluble type I collagen (acid-soluble type I atelocollagen from bovine hides) (bovine) (P02453 162-1217, chain 1 of 2): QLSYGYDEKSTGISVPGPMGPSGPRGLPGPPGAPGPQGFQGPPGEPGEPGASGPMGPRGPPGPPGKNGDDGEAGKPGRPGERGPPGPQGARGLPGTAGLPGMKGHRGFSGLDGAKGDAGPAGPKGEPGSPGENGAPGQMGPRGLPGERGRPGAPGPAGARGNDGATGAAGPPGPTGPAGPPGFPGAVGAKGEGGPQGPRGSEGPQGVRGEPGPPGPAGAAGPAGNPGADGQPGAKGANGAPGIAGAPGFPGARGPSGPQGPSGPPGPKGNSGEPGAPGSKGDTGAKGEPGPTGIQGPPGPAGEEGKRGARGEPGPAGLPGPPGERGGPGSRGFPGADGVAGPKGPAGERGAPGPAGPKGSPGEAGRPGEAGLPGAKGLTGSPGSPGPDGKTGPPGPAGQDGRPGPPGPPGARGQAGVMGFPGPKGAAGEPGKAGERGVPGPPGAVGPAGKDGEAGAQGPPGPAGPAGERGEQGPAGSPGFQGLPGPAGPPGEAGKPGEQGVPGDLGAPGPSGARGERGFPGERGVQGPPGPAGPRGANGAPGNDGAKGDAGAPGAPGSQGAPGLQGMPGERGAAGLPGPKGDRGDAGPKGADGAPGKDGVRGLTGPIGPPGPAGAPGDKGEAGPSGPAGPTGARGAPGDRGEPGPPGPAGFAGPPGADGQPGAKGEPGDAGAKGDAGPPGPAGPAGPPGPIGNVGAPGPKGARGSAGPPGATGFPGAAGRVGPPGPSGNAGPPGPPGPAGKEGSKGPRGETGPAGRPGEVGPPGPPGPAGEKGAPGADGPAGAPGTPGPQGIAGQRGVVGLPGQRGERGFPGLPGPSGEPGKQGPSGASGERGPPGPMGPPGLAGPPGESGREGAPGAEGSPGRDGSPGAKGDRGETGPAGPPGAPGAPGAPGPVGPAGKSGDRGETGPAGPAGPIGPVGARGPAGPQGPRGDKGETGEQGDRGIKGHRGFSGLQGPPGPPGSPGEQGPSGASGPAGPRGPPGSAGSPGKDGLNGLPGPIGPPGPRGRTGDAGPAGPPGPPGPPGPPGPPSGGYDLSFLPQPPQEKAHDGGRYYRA
Chain of soluble type I collagen (acid-soluble type I atelocollagen from bovine hides) (bovine) (P02465 80-1117, chain 2 of 2, further chain): as the sequence (P02465 80-1117, chain 2 of 2, further chain) above

Row | Substance | Kd [1] [nM] | Kd [2] [nM]
1 | ColQ1-CU G472V F123A (from UniProt B9J3S4 94-965) (domain or fragment) | 1600 | 
2 | ColQ1-CU G472V E166A (from UniProt B9J3S4 94-965) (domain or fragment) | 5000 | 
3 | ColQ1-CU G472V Y321A (control mutant) (from UniProt B9J3S4 94-965) (domain or fragment) | 2500 | 4000
4 | ColQ1-CU G472V Y270A (from UniProt B9J3S4 94-965) (domain or fragment) | 4200 | 190
5 | ColQ1-CU G472V R169A (from UniProt B9J3S4 94-965) (domain or fragment) | 2800 | 170
6 | ColQ1-CU G472V Y173A (from UniProt B9J3S4 94-965) (domain or fragment) | 24000 | 
7 | ColQ1-CU G472V Y251A (control mutant) (from UniProt B9J3S4 94-965) (domain or fragment) | 2500 | 2800
8 | ColQ1-CU G472V N317A (control mutant) (from UniProt B9J3S4 94-965) (domain or fragment) | 2300 | 2800
9 | ColQ1-CU G472V F176A (from UniProt B9J3S4 94-965) (domain or fragment) | 1200 | 80
